Experimental data as given in patent US20060148705A1 (Regeneron, published 2006).
Blank lines part the entries; values can stand above or below the binder they belong to.

Key:
human VEGF165 [1] = biological target: T1, human VEGF165 (human, UniProt P15692-4 27-191); assay: kinetic dissociation rate from hVEGF165, as described in WO/0075319
T1 construct: also called hVEGF165

human VEGF165 [2] = biological target: T1, human VEGF165; assay: half-life of dissociation from hVEGF165, as described in WO/0075319
human VEGF165 [3] = biological target: T1, human VEGF165; assay: BIAcore 2000; fusion protein captured on anti-VEGFR1 mAb, human VEGF165 (0-2 nM) injected
Experimental: (§1) Binding assays were carried out by first capturing around 100 RU of each fusion protein construct to the immobilized anti-VEGFR1 mAb, after which various concentrations (0-2 nM) of human VEGF165 were injected over the captured fusion protein surface at a flow rate of 100 μl/min for 2 minutes. The fusion protein constructs binding kinetic parameters including ka (1/Ms) (association rate constant), kd (1/s) (dissociation rate constant) and KD (dissociation equilibrium constant) were determined using the BIA evaluation 4.1 computer program (Biacore, Inc.), and t½ was determined using formula 0.693/kd (dissociation rate).

human VEGF165 [4] = biological target: T1, human VEGF165; assay: BIAcore 2000; t½ = 0.693/kd
Experimental: as §1

T1 sequence (P15692 other isoform, or with tags, fused parts or gaps limits assumed): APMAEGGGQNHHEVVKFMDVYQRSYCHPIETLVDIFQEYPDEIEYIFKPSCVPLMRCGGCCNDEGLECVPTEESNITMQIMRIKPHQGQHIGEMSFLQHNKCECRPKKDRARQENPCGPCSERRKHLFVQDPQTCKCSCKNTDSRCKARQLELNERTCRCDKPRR

koff (human VEGF165 [1]): 0.00674 s⁻¹
T1/2 (human VEGF165 [2]): 1.68 min
B1: recombinant monomeric R1R2-myc myc his (receptor, not shown: small tags and cut ends)
chain: GRPFVEMYSEIPEIIHMTEGRELVIPCRVTSPNITVTLKKFPLDTLIPDGKRIIWDSRKGFIISNATYKEIGLLTCEATVNGHLYKTNYLTHRQTNTIIDVVLSPSHGIELSVGEKLVLNCTARTELNVGIDFNWEYPSSKHQHKKLVNRDLKTQSGSEMKKFLSTLTIDGVTRSDQGLYTCAASSGLMTKKNSTFVRVHEK
modifications: Monomer with a C-terminal myc-myc-His tag that is not given in letters and is left out.
notes: Monomer; also called R1R2-myc myc his monomer

Kd (human VEGF165 [3]): 1.76 pM
koff (human VEGF165 [3]): 8e-06 s⁻¹
kon (human VEGF165 [3]): 4.54e+06 M⁻¹ s⁻¹
t½ (human VEGF165 [4]): 24.1 h
B2: fusion protein R1R2R1R2 (SEQ ID NO:24), single chain VEGF mini-trap (receptor)
chain: SDTGRPFVEMYSEIPEIIHMTEGRELVIPCRVTSPNITVTLKKFPLDTLIPDGKRIIWDSRKGFIISNATYKEIGLLTCEATVNGHLYKTNYLTHRQTNTIIDVVLSPSHGIELSVGEKLVLNCTARTELNVGIDFNWEYPSSKHQHKKLVNRDLKTQSGSEMKKFLSTLTIDGVTRSDQGLYTCAASSGLMTKKNSTFVRVHEKGPGRPFVEMYSEIPEIIHMTEGRELVIPCRVTSPNITVTLKKFPLDTLIPDGKRIIWDSRKGFIISNATYKEIGLLTCEATVNGHLYKTNYLTHRQTNTIIDVVLSPSHGIELSVGEKLVLNCTARTELNVGIDFNWEYPSSKHQHKKLVNRDLKTQSGSEMKKFLSTLTIDGVTRSDQGLYTCAASSGLMTKKNSTFVRVHEK
notes: Monomer, secreted from CHO K1 cells; also called R1R2-R1R2 VEGF mini-trap; (R1R2)2
